Source: patent US20250282866A1 (VIGIL NEUROSCIENCE, published 2025)
Numbering of substitutions follows the chain as printed.

T1: human TREM2 (human, UniProt Q9NZC2 19-174, limits assumed)
T1 construct: also called triggering receptor expressed on myeloid cells 2
T1 sequence: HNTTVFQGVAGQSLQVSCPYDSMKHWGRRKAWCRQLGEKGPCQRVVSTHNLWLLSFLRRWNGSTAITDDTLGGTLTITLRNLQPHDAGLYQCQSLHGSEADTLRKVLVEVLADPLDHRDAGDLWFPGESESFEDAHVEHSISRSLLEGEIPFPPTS

B1: V6 (antibody, V domains shown)
VH: EVQLVQSGAEVKKPGESLKISCKGSGYSFTSMWIAWVRQMPGKGLEWMGIIYPGDSDTRYSPSFQGQVTISADKSISTAYLQWSSLKASDTAMYFCARQRTFYYDSSDYFDYWGQGTLVTVSS
VL: DIQMTQSPSSVSASVGDRVTITCRASQGISSWLAWYQQKPGKAPKLLIYAASSLQNGVPSRFSGSGSGTDFTLTISSLQPEDFATYFCQQADSFPRTFGQGTKLEIK
B2: V21 (antibody, V domains shown)
VH: B1 VH with M32Y, Y109F
VL: B1 VL
B3: V20 (antibody, V domains shown)
VH: B1 VH with M32Y, I50R
VL: B1 VL
B4: V19 (antibody, V domains shown)
VH: B1 VH with M32S
VL: B1 VL
B5: V7 (antibody, V domains shown)
VH: B1 VH with M32E
VL: B1 VL
B6: V11 (antibody, V domains shown)
VH: B1 VH with M32Y
VL: B1 VL with D92A
B7: V30 (antibody, V domains shown)
VH: B1 VH with Y27S, M32Y
VL: B1 VL
B8: V9 (antibody, V domains shown)
VH: B1 VH with M32Y, T101G
VL: B1 VL
B9: V23 (antibody, V domains shown)
VH: B1 VH with M32Y
VL: B1 VL with R96L
B10: V22 (antibody, V domains shown)
VH: B1 VH with M32Y
VL: B1 VL with A50R
B11: V10 (antibody, V domains shown)
VH: B1 VH with M32Y
VL: B1 VL with A50S
B12: V8 (antibody, V domains shown)
VH: B1 VH with M32Y, R59K
VL: B1 VL
B13: V18 (antibody, V domains shown)
VH: B1 VH with M32Y, W33H
VL: B1 VL

These binders were tested against T1, human TREM2 (assay: 2nd screen 100 nM).

In order of rising “Binding Signal (fold over 6E7 Parental antibody)” value:
1. B5  0.32 fold
2. B9  0.4 fold
3. B6  0.42 fold
4. B13  0.42 fold
5. B4  0.48 fold
6. B3  0.52 fold
7. B8  0.54 fold
8. B1  0.56 fold
9. B2  0.68 fold
10. B11  0.7 fold
11. B10  0.71 fold
12. B7  0.72 fold
13. B12  0.77 fold

What follows are binders tested against T1, human TREM2 (assay: 1st screen (110 nM or 10 nM)).

In order of rising “Binding Signal (fold over 6E7 Parental antibody)” value:
1. B5  0.11 fold
2. B13  0.17 fold
3. B3  0.18 fold
4. B1  0.2 fold
5. B12  0.28 fold
6. B10  0.3 fold
7. B9  0.4 fold
8. B4  0.59 fold
9. B8  0.67 fold
10. B2  0.76 fold
11. B11  0.76 fold
12. B6  0.79 fold
13. B7  0.79 fold
